The text below walks through data of JP2023550785A (dated 2023).

The target of assay [1] is T1, HCoV-OC43 prefusion-stabilized spike (S) protein / S ectodomain trimer (human coronavirus OC43, UniProt P36334 14-1297).
T1 sequence: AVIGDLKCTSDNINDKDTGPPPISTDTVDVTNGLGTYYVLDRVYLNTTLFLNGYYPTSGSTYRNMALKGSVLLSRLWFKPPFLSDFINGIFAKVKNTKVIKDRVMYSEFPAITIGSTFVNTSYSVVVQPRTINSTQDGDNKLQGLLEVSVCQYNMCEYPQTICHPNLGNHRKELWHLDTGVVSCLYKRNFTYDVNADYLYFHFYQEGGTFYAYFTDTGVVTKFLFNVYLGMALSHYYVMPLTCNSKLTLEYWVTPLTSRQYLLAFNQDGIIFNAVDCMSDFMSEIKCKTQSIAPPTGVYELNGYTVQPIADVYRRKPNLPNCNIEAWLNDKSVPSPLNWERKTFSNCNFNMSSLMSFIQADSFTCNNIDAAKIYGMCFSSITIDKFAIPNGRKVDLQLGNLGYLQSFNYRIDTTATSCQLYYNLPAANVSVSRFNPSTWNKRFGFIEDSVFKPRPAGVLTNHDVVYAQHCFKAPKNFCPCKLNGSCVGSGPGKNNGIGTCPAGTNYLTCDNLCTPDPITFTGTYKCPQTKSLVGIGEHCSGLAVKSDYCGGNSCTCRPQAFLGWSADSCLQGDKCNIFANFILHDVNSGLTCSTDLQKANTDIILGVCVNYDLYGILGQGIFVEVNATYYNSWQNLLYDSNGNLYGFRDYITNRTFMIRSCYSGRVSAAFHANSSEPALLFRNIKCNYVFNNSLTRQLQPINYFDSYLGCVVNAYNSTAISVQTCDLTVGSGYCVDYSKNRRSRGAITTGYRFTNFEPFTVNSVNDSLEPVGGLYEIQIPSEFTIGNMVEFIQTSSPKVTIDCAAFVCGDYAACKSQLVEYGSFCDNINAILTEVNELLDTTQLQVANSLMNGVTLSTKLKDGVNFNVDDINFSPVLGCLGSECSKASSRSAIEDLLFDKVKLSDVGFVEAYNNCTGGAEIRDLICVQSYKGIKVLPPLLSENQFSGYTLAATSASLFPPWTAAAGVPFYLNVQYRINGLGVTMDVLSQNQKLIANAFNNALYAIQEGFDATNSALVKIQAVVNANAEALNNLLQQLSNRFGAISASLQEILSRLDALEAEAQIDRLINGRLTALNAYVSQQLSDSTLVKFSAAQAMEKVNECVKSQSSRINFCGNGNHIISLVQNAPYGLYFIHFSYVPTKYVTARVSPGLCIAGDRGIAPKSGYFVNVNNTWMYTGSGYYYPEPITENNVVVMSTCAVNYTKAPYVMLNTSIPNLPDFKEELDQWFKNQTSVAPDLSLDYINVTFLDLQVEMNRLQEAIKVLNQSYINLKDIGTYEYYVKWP

For assay [2], the target named is T2, MERS-CoV (London1/2012) prefusion-stabilized spike (S) protein / S ectodomain trimer (MERS-CoV (London1/2012), UniProt K9N5Q8 18-1296).
T2 sequence: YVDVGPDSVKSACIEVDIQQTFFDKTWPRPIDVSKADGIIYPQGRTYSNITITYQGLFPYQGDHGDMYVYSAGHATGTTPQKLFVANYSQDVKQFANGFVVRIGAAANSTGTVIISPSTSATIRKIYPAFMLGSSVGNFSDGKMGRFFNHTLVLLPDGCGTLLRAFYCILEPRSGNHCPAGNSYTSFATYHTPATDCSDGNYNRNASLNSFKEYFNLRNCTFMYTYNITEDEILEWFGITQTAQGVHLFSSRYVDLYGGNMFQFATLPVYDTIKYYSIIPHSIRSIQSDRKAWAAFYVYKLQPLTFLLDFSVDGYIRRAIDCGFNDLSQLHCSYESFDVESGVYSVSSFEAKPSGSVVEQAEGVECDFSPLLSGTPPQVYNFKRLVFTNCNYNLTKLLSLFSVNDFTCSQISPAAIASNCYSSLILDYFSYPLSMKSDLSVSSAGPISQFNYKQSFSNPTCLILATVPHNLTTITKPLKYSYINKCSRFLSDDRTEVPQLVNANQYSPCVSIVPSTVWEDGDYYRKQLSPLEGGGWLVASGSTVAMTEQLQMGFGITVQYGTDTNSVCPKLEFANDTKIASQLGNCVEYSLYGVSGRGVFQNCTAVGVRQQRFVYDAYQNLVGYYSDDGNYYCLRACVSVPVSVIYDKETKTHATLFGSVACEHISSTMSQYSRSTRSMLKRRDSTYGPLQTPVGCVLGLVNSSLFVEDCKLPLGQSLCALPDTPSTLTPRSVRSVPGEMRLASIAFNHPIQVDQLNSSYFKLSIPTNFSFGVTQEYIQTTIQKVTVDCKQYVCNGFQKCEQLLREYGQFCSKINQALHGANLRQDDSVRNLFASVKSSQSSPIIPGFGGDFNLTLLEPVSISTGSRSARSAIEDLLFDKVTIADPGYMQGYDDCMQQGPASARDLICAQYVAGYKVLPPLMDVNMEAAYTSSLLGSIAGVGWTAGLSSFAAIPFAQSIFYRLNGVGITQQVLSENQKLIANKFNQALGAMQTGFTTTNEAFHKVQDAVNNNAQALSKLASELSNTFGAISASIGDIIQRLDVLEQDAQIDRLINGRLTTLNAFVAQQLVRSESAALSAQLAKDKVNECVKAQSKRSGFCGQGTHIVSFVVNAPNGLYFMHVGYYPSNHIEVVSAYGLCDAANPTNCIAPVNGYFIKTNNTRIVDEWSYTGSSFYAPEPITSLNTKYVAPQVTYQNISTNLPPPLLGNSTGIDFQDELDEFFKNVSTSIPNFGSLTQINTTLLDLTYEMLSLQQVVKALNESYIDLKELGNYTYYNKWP

B1: antibody S2P6 (antibody 420 1 1), human monoclonal antibody expressed as recombinant human IgG1 (antibody, V domains shown)
VH: EVQLVQSGAEVKKPGASVKVSCKASGYTFTSQYMHWVRQAPGQGLEWIGIINPSGVHTSYAQKFQGRVTLTRDTSTSTLYMELSSLRSEDTAVYYCARGSPKGAFDYWGQGTLVTVSS
VL: not shown
What is called Kd is the free concentration of one partner at which half of the binding sites on the other are occupied at equilibrium, for simple one-to-one binding. High values mean a looser complex, low ones a tighter complex. For the molecule B1, the Kd in assay [1] is 0.372 nM; in assay [2], 1.14 nM.
